Source: paper PMC6818130

How the values were obtained:
[1] = glycan lost
[2] = Western blot, steady-state level, Tet-induced 293 cells; conditions: glycan lost; control: wild-type GILT
[3] = confocal immunofluorescence co-localisation with LAMP1; conditions: glycan lost; control: wild-type GILT

Gamma-interferon-inducible lysosomal thiol reductase (GILT, IFI30): N108A
decreases: other: restriction of viral entry [1] | expression_or_secretion [2] | localisation_or_trafficking [3]

Gamma-interferon-inducible lysosomal thiol reductase (GILT, IFI30): N95A
decreases: other: restriction of viral entry [1] | expression_or_secretion [2] | localisation_or_trafficking [3]

Gamma-interferon-inducible lysosomal thiol reductase (GILT, IFI30): N63A
decreases: other: restriction of viral entry [1] | expression_or_secretion [2] | localisation_or_trafficking [3]
